Results on 1 protein are retold here after publication PMC8318291, “CryoEM structure of the Nipah virus nucleocapsid assembly” (PLoS Pathogens, 2021).

Where “and” joins values, the source holds several entries; their conditions need not be identical. Identical values can stand only once.

The data set concerns the molecule itself. Kind of data set: cryo-EM structure.

B1: Nipah virus (NiV) nucleocapsid protein (natural protein)
chain: MSDIFEEAASFRSYQSKLGRDGRASAATATLTTKIRIFVPATNSPELRWELTLFALDVIRSPSAAESMKVGAAFTLISMYSERPGALIRSLLNDPDIEAVIIDVGSMVNGIPVMERRGDKAQEEMEGLMRILKTARDSSKGKTPFVDSRAYGLRITDMSTLVSAVITIEAQIWILIAKAVTAPDTAEESETRRWAKYVQQKRVNPFFALTQQWLTEMRNLLSQSLSVRKFMVEILIEVKKGGSAKGRAVEIISDIGNYVEETGMAGFFATIRFGLETRYPALALNEFQSDLNTIKSLMLLYREIGPRAPYMVLLEESIQTKFAPGGYPLLWSFAMGVATTIDRSMGALNINRGYLEPMYFRLGQKSARHHAGGIDQNMANRLGLSSDQVAELAAAVQETSAGRQESNVQAREAKFAAGGVLIGGSDQDIDEGEEPIEQSGRQSVTFKREMSISSLANSVPSSSVSTSGGTRLTNSLLNLRSRLAAKAAKEAASSNATDDPAISNRTQGESEKKNNQDLKPAQNDLDFVRADV
notes: also called N protein; nucleoprotein (N)
As to B1, the stoichiometry N (usually a count of units in the complex or per binding partner) is 13 subunits and 14 subunits.
